# Molecular target: WDR5^22–334 (human, UniProt P61964 22-334)
# Test: ITC
row,Binder,Kd
1,GSARAEVHLRK [MLL1 WIN motif MLL1^3762–3772],1.8 µM
2,GSRRAEVHLRK [MLL1^3762–3772_A3764R],2 µM

# Source: paper PMC11094138 (2024)
